From US20220242939A1 (BIOARCTIC, published 2022)
Non-standard residues stand in square brackets, D forms with d. No end group written: not given here. Ahx = NCCCCCC(=O)O

T1: A199 N-terminal neo-epitope peptide AGQPLQ-Acp-C (SEQ ID NO:51) conjugated to BSA (human, not fully specified (residue 8); printed as AGQPLQ-Acp-C; also: C-terminal Cys conjugated to BSA carrier)
T1 construct: BSA carrier; also called A199-BSA peptide
T1 peptide: AGQPLQ[Ahx]C

T2: G200 N-terminal neo-epitope peptide GQPLQE-Acp-C (SEQ ID NO:50) conjugated to BSA (human, not fully specified (residue 8); printed as GQPLQE-Acp-C; also: C-terminal Cys conjugated to BSA carrier)
T2 construct: also called G200-BSA peptide; G200-peptide
T2 peptide: GQPLQE[Ahx]C


Columns and labels:
[1] = molecular target: T3, full-length ApoE in human brain extract from Alzheimer's disease patients (human, UniProt P02649 19-317); assay: Western blot of AD brain RIPA 2% SDS extract; recombinant antibody at 2 ug/ml as primary antibody
T3 construct: mature; Endogenous protein on Western blot or in solution (IP); also called ApoE full-length protein
T3 sequence (P02649 19-317): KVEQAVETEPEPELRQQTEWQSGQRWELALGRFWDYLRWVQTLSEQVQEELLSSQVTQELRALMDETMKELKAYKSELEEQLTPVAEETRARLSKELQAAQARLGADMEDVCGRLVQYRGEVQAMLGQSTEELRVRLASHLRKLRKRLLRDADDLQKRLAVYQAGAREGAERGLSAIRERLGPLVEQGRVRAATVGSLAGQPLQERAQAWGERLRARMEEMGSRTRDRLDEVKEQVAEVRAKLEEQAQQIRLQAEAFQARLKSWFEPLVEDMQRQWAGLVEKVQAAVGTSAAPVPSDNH

[2] = molecular target: T1, A199 N-terminal neo-epitope peptide …; assay: direct ELISA, target coated at 1 ug/ml, antibody in 3-fold dilutions from 500 ng/ml, OD 450 nm
Protocol: (§1) Selectivity evaluation of recombinant antibodies by direct ELISA: The direct ELISA described below was used to evaluate the binding selectivity of the recombinant antibodies produced in Example 11.
(§2) The screening was performed according to standard ELISA protocols. Briefly, 1 μg/ml solutions of BSA-conjugated neo-epitope peptides, recombinant C-terminal ApoE fragment, negative control peptide and full-length ApoE were prepared by dilution in PBS. 50 μl/well were added to an ELISA half-area 96 well microtiter plate, the plate was sealed with adhesive sealer and incubated over night at 4° C. After discarding the solution, the plates were blocked with 150 μl/well of protein-free blocking solution (Pierce) for 1 h at room temperature with shake (900 rpm). The plates were washed four times with washing buffer containing 0.28 mM NaH₂PO₄, 2.5 mM Na₂HPO₄, 150 mM NaCl, 0.1% TWEEN®-20 and 0.0075% Kathon CG. Generated recombinant antibodies of interest were serially diluted 3-fold with a starting dilution at 0.5 μg/ml (mixed 1:1 with dilution buffer: PBS with 0.1% BSA and 0.05% TWEEN®-20). An anti-ApoE C-terminal antibody was used as a reference antibody (ApoE E-8 mouse monoclonal, cat. no. sc-393302; Santa Cruz Biotechnology). 50 μl/well were added into the ELISA plates and incubated for 2 h at room temperature with shake (900 rpm). The plates were washed four times as described previously. […] After another wash (as described previously), 50 μl/well of K-Blue® aqueous substrate (Neogen) were added, and the reaction was stopped after 5-15 min with 50 μl/well of 0.5 M […]. The optical density at 450 nm was read using an ELISA reader (Tecan).

[3] = molecular target: T4, His-tagged recombinant full-length ApoE4, 10xHIS-ApoE4(1-299) (human, UniProt P02649 19-317); assay: as above
T4 construct: also called ApoE4-FL-HIS
T4 sequence (P02649 other isoform, or with tags, fused parts or gaps limits assumed): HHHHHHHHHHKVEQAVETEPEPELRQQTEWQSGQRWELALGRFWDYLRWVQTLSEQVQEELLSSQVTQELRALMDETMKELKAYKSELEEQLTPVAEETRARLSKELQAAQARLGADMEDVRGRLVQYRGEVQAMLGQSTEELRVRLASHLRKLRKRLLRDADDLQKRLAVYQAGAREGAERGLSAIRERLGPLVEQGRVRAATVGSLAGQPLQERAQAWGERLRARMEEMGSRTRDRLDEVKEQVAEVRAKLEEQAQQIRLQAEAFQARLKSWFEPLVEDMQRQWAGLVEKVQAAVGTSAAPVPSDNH
Protocol: as §1, §2

[4] = molecular target: T5, recombinant C-terminal ApoE fragment G200-HIS (ApoE-G200-H299-10xHIS) (human, UniProt P02649 218-317); assay: second direct ELISA, G200-HIS coated at 0.1 µM
T5 construct: also called G200-HIS fragment
T5 sequence (P02649 other isoform, or with tags, fused parts or gaps limits assumed): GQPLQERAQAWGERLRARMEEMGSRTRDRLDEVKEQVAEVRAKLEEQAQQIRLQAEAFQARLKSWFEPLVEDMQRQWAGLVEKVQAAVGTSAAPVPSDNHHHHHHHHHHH
Protocol: as §2, with “(Tecan). The optical density was plotted against the antibody concentration to generate concentration-response curves (FIG. 16).” for “(Tecan).”
(§3) These were added in the same molarity (0.1 μM) to provide an equal number of molecules available for binding by the antibodies (BSA-coupled peptides were coated at 1 μg/ml as before).

[5] = molecular target: T5, recombinant C-terminal ApoE fragment …; assay: SPR (Biacore 8K), G200-HIS amine-coupled on CM5, antibody as analyte, bivalent analyte fit (KD1)
[6] = molecular target: T2, G200 N-terminal neo-epitope peptide …; assay: second direct ELISA, G200-BSA peptide coated at 1 µg/ml
Protocol: as §2, with “(Tecan). The optical density was plotted against the antibody concentration to generate concentration-response curves (FIG. 16).” for “(Tecan).”
as §3

[7] = molecular target: T5, recombinant C-terminal ApoE fragment …; assay: SPR (Biacore 8K), G200-HIS amine-coupled on CM5, antibody as analyte, bivalent analyte fit (ka1)
[8] = molecular target: T5, recombinant C-terminal ApoE fragment …; assay: SPR (Biacore 8K), G200-HIS amine-coupled on CM5, antibody as analyte, bivalent analyte fit (kd1)

Row | binding result [1] | binding result [2] | binding result [3] | EC50 [4] [ng/mL] | Kd [5] [nM] | EC50 [6] [ng/mL] | kon [7] [M⁻¹ s⁻¹] | koff [8] [s⁻¹] | Binder
1 | no binding (tested: 2 ug/ml (text)) | no binding (tested: 500 ng/ml) | no binding (tested: 500 ng/ml) | 10.1 | 299 | 11.6 | 260000 | 0.0105 | 23D5, recombinant IgG2c antibody (antibody, V domains shown) VH: EVQLVESGGGLVKPGGSLKLSCSASGFTFSRYAMSWVRQSPEKRLEWVAEINSGGSYSFYSDTVTGRFTISRDNAKNTLFLEMSSLRSEDTAIYYCARQLSGTDYYGTDYWGQGTSVTVSS VL: DVLMTQTPLSLPVSHGDQASISCRSSQSLLYSNGNTYLEWYLQKPGQSPKLLIYKVSNRFSGVPDRFSGSGSGTDFTLKISRVEAEDLGVYYCFQGSHVPYTFGGGTKLEIK
2 | no binding (tested: 2 ug/ml (text)) |  | no binding (tested: 500 ng/ml) | 21.5 | 9830 | 7.2 | 4.98e+06 | 0.0035 | 28F2, recombinant IgG2c antibody (antibody, V domains shown) VH: QIQLVQSGPDLKKPGETVKISCKASGYTFTNYAMHWMKQAPGKALKWMGWINTYTGEPTFADDFKGRFAFSLETSASTAYLQINSLKNEDMATYFCAREGYYDRSHYFDYWGQGTTLTVSS VL: DVLMTQTPLSLPVSLGDQASISCRSSLSLVHGDGNTYLEWYLQKPGQSPKLLIYKVSNRFSGVPDRFSGSGSGTDFTLKISRVEAEDLGVYYCLQGSHIPFTFGSGTKLEIK
3 | no binding (tested: 2 ug/ml (text)) | no binding (tested: 500 ng/ml) |  | 18.1 | 417 | 13 | 2.88e+06 | 0.0029 | 7C7, recombinant IgG2c antibody (antibody, V domains shown) VH: EVQLVESGGGLVKPGGSLRLSCAASGFTFSSFAMSWVRQSPERRLEWVAEISRGGGYAFYSDTVTGRFTISRDNARNTLFLEMGSLRSEDTAMYYCSRQLTGTDYYAMDYWGQGTSVTVSS VL: DVLLTQTPLSLFVSLGDQASISCRSSQSIVYTNGNTYLEWYLQKPGQSPKLLIYKVSNRFSGVPDRFSGSGSGTDFTLKISRVEAEDLGVYYCFQGSQVPYTFGGGTKLELK
4 | no binding (tested: 2 ug/ml (text)) | no binding (tested: 500 ng/ml) | no binding (tested: 500 ng/ml) | 9.5 |  | 6.9 | 8.15e+07 | 0.006 | 4E6, recombinant IgG2c antibody (antibody, V domains shown, also called recombinant anti-G200 antibody 4E6) VH: EVQLVESGGDLVKPGGSLKLSCAASGFTFSSYAMSWVRQSPEKRLEWVAEISGSGSRDHYTDSVTGRFTVSRDNAKNTLYLEMSSLRSEDTAIYYCARQLTGTDYYGTDYWGQGTSVTVSS VL: DVLMTQIPLSLPVSLGDQASISCRSSQSIVYSNGNTYLEWYLQRPGQSPKLLIYKVSNRFSGVPDRFSGSGSGTDFTLKISRVEAEDLGVYYCFQGSHLPYTFGGGTKLEIK
5 | no binding (tested: 2 ug/ml (text)) | no binding (tested: 500 ng/ml) | no binding (tested: 500 ng/ml) | 7.9 | 141 | 5.1 | 8.73e+06 | 0.0024 | 17G4, recombinant IgG2c antibody (antibody, V domains shown) VH: EVQLVESGGGLVKPGGSLKLSCSASGFTFSRYAMSWVRQSPEKRLEWVAEINSGGSYSFYSDTVTGRFTISRDNAKNTLFLEMSSLRSEDTAIYYCARQLTGTDYYGTDYWGQGTSVTVSS VL: DVLMTQTPLSLPVSHGDQASISCRSSQSLLYSNGNTYLEWYLQKPGQSPKLLIYKVSNRFSGVPDRFSGSGSGTDFTLKISRVEAEDLGVYYCFQGSHVPYTFGGGTKLEIK
6 | no binding (tested: 2 ug/ml (text)) | no binding (tested: 500 ng/ml) | no binding (tested: 500 ng/ml) | 10.7 | 330 | 7.3 | 1.2e+06 | 0.0038 | 7B10, recombinant IgG2c antibody (antibody, V domains shown, also called 7610) VH: AVQLVESGGGLVKPGRSLKLSCAASGFTFSSYAMSWVRQFPDKRLDWVAEISSGGGSTNYLDTVTGRFTISRDNAKNTLYLEMNSLRSEDTAMYYCARQLVGTDYYGTDYWGQGTSVTVSS VL: DVLMTQTPLSLPVSLGDQASISCRSSQNIVYSNGNTYLEWYLQKPGQSPKLLIYKVSNRFSGVPDRFSGSGSGTDFTLKISRVEAEDLGVYYCFQGSHVPYTFGGGTKLEIK
